Source: the supplement of paper PMC10567573

B1: IMPA1 (parent)
chain: FIGEESVAAGEKSILTDNPTWIID

Variants of: B1
Experiment: protein stability index of a GFP-peptide fusion (GPS, HEK-293T) (PSI 1-6); higher = more stable
Conditions: c terminus: a fixed tail appended
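Note: lentivirally expressed fusions sorted by FACS into six bins by GFP to DsRed ratio, PSI derived from sequencing read proportions per bin multiplied by bin number.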

Variant	protein stability index
FIGEESVAAGEKRILTDNPTWIID [S13R]	2.4
FIGEESVAAGEKTILTDNPTWIID [S13T]	1.89
FIGEESVAAGEKVILTDNPTWIID [S13V]	2.47
FIGEESVAAGEKWILTDNPTWIID [S13W]	2.21
FIGEESVAAGEKYILTDNPTWIID [S13Y]	2
FIGEESVAAGEKSALTDNPTWIID [I14A]	2.47
FIGEESVAAGEKSCLTDNPTWIID [I14C]	1.68
FIGEESVAAGEKSDLTDNPTWIID [I14D]	2.34
FIGEESVAAGEKSELTDNPTWIID [I14E]	2.31
FIGEESVAAGEKSFLTDNPTWIID [I14F]	1.5
FIGEESVAAGEKSGLTDNPTWIID [I14G]	2.38
FIGEESVAAGEKSHLTDNPTWIID [I14H]	2.44
FIGEESVAAGEKSKLTDNPTWIID [I14K]	2.54
FIGEESVAAGEKSLLTDNPTWIID [I14L]	1.78
FIGEESVAAGEKSMLTDNPTWIID [I14M]	2.15
FIGEESVAAGEKSNLTDNPTWIID [I14N]	2.23
FIGEESVAAGEKSPLTDNPTWIID [I14P]	2.33
FIGEESVAAGEKSQLTDNPTWIID [I14Q]	2.01
FIGEESVAAGEKSRLTDNPTWIID [I14R]	1.99
FIGEESVAAGEKSSLTDNPTWIID [I14S]	2.32
FIGEESVAAGEKSTLTDNPTWIID [I14T]	2.6
FIGEESVAAGEKSVLTDNPTWIID [I14V]	2.23
FIGEESVAAGEKSWLTDNPTWIID [I14W]	2.22
FIGEESVAAGEKSYLTDNPTWIID [I14Y]	1.91

Variant	protein stability index
FIGEESVAAGEKSIATDNPTWIID [L15A]	2.33
FIGEESVAAGEKSICTDNPTWIID [L15C]	2.3
FIGEESVAAGEKSIDTDNPTWIID [L15D]	2.83
FIGEESVAAGEKSIETDNPTWIID [L15E]	2.61
FIGEESVAAGEKSIFTDNPTWIID [L15F]	2.06
FIGEESVAAGEKSIGTDNPTWIID [L15G]	2.77
FIGEESVAAGEKSIHTDNPTWIID [L15H]	2.22
FIGEESVAAGEKSIITDNPTWIID [L15I]	1.98
FIGEESVAAGEKSIKTDNPTWIID [L15K]	2.47
FIGEESVAAGEKSIMTDNPTWIID [L15M]	2.15
FIGEESVAAGEKSINTDNPTWIID [L15N]	2.78
FIGEESVAAGEKSIPTDNPTWIID [L15P]	2.57
FIGEESVAAGEKSIQTDNPTWIID [L15Q]	2.28
FIGEESVAAGEKSIRTDNPTWIID [L15R]	2.17
FIGEESVAAGEKSISTDNPTWIID [L15S]	2.33
FIGEESVAAGEKSITTDNPTWIID [L15T]	2.33
FIGEESVAAGEKSIVTDNPTWIID [L15V]	2.52
FIGEESVAAGEKSIWTDNPTWIID [L15W]	2.48
FIGEESVAAGEKSIYTDNPTWIID [L15Y]	2.05
FIGEESVAAGEKSILADNPTWIID [T16A]	2.35
FIGEESVAAGEKSILCDNPTWIID [T16C]	3.16
FIGEESVAAGEKSILDDNPTWIID [T16D]	3.17
FIGEESVAAGEKSILEDNPTWIID [T16E]	2.64
FIGEESVAAGEKSILFDNPTWIID [T16F]	1.66

Variant	protein stability index
FIGEESVAAGEKSILGDNPTWIID [T16G]	2.11
FIGEESVAAGEKSILHDNPTWIID [T16H]	2.38
FIGEESVAAGEKSILIDNPTWIID [T16I]	1.41
FIGEESVAAGEKSILKDNPTWIID [T16K]	2.73
FIGEESVAAGEKSILLDNPTWIID [T16L]	1.83
FIGEESVAAGEKSILMDNPTWIID [T16M]	2.38
FIGEESVAAGEKSILNDNPTWIID [T16N]	2.89
FIGEESVAAGEKSILPDNPTWIID [T16P]	1.26
FIGEESVAAGEKSILQDNPTWIID [T16Q]	2.19
FIGEESVAAGEKSILRDNPTWIID [T16R]	2.37
FIGEESVAAGEKSILSDNPTWIID [T16S]	1.94
FIGEESVAAGEKSILVDNPTWIID [T16V]	2.21
FIGEESVAAGEKSILWDNPTWIID [T16W]	1.72
FIGEESVAAGEKSILYDNPTWIID [T16Y]	1.64
FIGEESVAAGEKSILTANPTWIID [D17A]	1.54
FIGEESVAAGEKSILTCNPTWIID [D17C]	1.66
FIGEESVAAGEKSILTENPTWIID [D17E]	2.6
FIGEESVAAGEKSILTFNPTWIID [D17F]	2.25
FIGEESVAAGEKSILTGNPTWIID [D17G]	2.08
FIGEESVAAGEKSILTHNPTWIID [D17H]	1.93
FIGEESVAAGEKSILTINPTWIID [D17I]	2.7
FIGEESVAAGEKSILTKNPTWIID [D17K]	1.46
FIGEESVAAGEKSILTLNPTWIID [D17L]	2.06
FIGEESVAAGEKSILTMNPTWIID [D17M]	2.13

Variant	protein stability index
FIGEESVAAGEKSILTNNPTWIID [D17N]	1.85
FIGEESVAAGEKSILTPNPTWIID [D17P]	2
FIGEESVAAGEKSILTQNPTWIID [D17Q]	1.78
FIGEESVAAGEKSILTRNPTWIID [D17R]	1.68
FIGEESVAAGEKSILTSNPTWIID [D17S]	1.71
FIGEESVAAGEKSILTTNPTWIID [D17T]	1.63
FIGEESVAAGEKSILTVNPTWIID [D17V]	1.55
FIGEESVAAGEKSILTWNPTWIID [D17W]	2.23
FIGEESVAAGEKSILTYNPTWIID [D17Y]	1.48
FIGEESVAAGEKSILTDAPTWIID [N18A]	3.01
FIGEESVAAGEKSILTDCPTWIID [N18C]	2.64
FIGEESVAAGEKSILTDDPTWIID [N18D]	3.68
FIGEESVAAGEKSILTDEPTWIID [N18E]	3.48
FIGEESVAAGEKSILTDFPTWIID [N18F]	2.46
FIGEESVAAGEKSILTDGPTWIID [N18G]	2.71
FIGEESVAAGEKSILTDHPTWIID [N18H]	2.95
FIGEESVAAGEKSILTDIPTWIID [N18I]	2.71
FIGEESVAAGEKSILTDKPTWIID [N18K]	2.73
FIGEESVAAGEKSILTDLPTWIID [N18L]	2.88
FIGEESVAAGEKSILTDMPTWIID [N18M]	2.6
FIGEESVAAGEKSILTDPPTWIID [N18P]	3.14
FIGEESVAAGEKSILTDQPTWIID [N18Q]	2.86
